These results are taken from patent US20050114927.

The data set has as its target Yeast wild-type L3 incorporated into ribosomes of wild-type cells.

B1: Pokeweed antiviral protein (PAP) (protein)
chain: VNTIIYNVGSTTISKYATFLNDLRNEAKDPSLKCYGIPMLPNTNTNPKYVLVELQGSNKKTITLMLRRNNLYVMGYSDPFETNKCRYHIFNDISGTERQDVETTLCPNANSRVSKNINFDSRYPTLESKAGVKSRSQVQLGIQILDSNIGKISGVMSFTEKTEAEFLLVAIQMVSEAARFKYIENQVKTNFNRAFNPNPKVLNLQETWGKISTAIHDAKNGVLPKPLELVDASGAKWIVLRVDEIKPDVALLNYVGGSCQTTY
For B1, the “association with isolated ribosomes (immunoblot with antibody against PAP)” value was “Both PAP and PAPx were associated with ribosomes in wild-type cells”.
